In doi:10.1101/2025.05.11.653314:

Target: U. parvum Smc (Ureaplasma parvum)
Experiment: cross-linking

Substance: U. parvum Smc (enzyme)
- stoichiometry N: 2
